Measured values reported in patent US20200270345A1 (JOINT STOCK COMPANY BIOCAD, published 2020).

What was measured:
[1] = molecular target: T1, human CD47-Fc (human, UniProt Q08722 19-134); assay: competitive ELISA without VHH: uninhibited SIRP-Fc / CD47-Fc signal
T1 construct: Leu19-Val134 is the natural numbering printed; also called human CD47-Fc receptor; human CD47-Fc (Biocad); not shown: Fc tag of the expression plasmid

[2] = molecular target: T1, human CD47-Fc; assay: ELISA, CD47-Fc coated, VHH in E. coli supernatant, anti-myc detection, 450 nm
Protocol: ELISA was used to measure the binding of specific test antibody fragments of Example 4 to human CD47-Fc. ELISA well plates (Nunc ImmunoMaxisorp) were covered with 50 μl/well of human CD47-Fc (Biocad) (0.5 μg/ml in 1× coating carbonate buffer), sealed, and incubated overnight at 4° C. All further stages were performed in accordance with standard ELISA protocols with a high-performance automated platform based on robotic systems such as GenetixQ-pix2xt (Molecular Devices) and Tecan Freedom EVO 200 (Tecan). Non-specific binding was blocked by adding a blocking buffer BB (200 μl 0.5% fat-free milk in PBS). Plates were incubated on a shaker for 1 h at room temperature. After washing with PBS-Tween, each cell was coated with 100 μl of cell supernatant containing the test antibody fragment. The plates were incubated on a shaker for 1 hour at room temperature; further, each plate well was 5 times washed with PBS-Tween buffer. After washing, mouse anti-MYC IgG clone 9E10 (ThermoFisher Scientific) (50 μl/well) was added to PBS-Tween (1:5000). The plates were shaken in rotation shaker (50 min at room temperature) and then 5 times washed with PBS-Tween buffer as described above. After washing, anti-mouse IgG HRP conjugate (ThermoFisher Scientific) (50 μl/well) was added to PBS-Tween (1:10000). The plates were shaken in rotation shaker (50 min at room temperature) and then 5 times washed with PBS-Tween buffer as described above. Colorimetric signal was obtained by adding TMB (50 μl/well) until saturated (average of 10-12 min); further color development was blocked by adding a stop solution (25 μl/well, 1% sulfuric acid). Color signal was measured at 450 nm using a suitable Tecan-Sunrise plate reader (Tecan). Antibody binding was proportional to the signal produced.

[3] = molecular target: T1, human CD47-Fc; assay: BLI (Octet Red 96), CD47-Fc on ARG2 sensor, VHH in growth medium, 1:1 model
Protocol: VHH antibody fragments were measured to provide an example of analysis of kinetic parameters of interaction of antibody fragments that specifically bind to CD47 receptor. Dissociation constant (kdis)-based comparative screening for VHH fragments was performed using Octet Red 96 and ARG2 amino-reactive biosensors (Pall-ForteBio). Affinity constants can be calculated based on the exact protein concentration in the test solution, and, since cell growth media were used as a protein solution and protein concentrations were not measured, the candidates were compared to each other by using the dissociation constant thereof. Biosensors were pre-rehydrated for an hour in water. After activating biosensors, CD47-Fc at a concentration of 10 μg/ml in acetate buffer pH4 was non-specifically (by NH2 groups) immobilized onto the biosensor. The sensors were then immersed into wells containing cell growth medium with specific VHHs (from about 1 μg of VHH in 1 ml of medium), where the complex was associated. The sensors were then immersed in a buffer solution, where the subsequent stage of dissociation of the complex took place. 1/10 of the volume of 10× working buffer was added to the test specimens in E. Coli growth medium containing anti-CD47 VHH fragments. The obtained curves were analyzed using OctetDataAnalysis (version 7.0) according to the standard procedure with 1:1 interaction model.

[4] = molecular target: T1, human CD47-Fc; assay: competitive ELISA, competitor SIRP-Fc; lower OD means more blocking
[5] = molecular target: CD47 proprietary (human, UniProt Q08722 19-134, limits assumed); assay: ELISA on CD47 proprietary, 450 nm
Chain of CD47 proprietary (Q08722 19-134 limits assumed): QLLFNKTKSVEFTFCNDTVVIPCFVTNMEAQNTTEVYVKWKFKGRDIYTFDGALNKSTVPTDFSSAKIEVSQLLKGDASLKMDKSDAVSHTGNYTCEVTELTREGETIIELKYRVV

T1 sequence (Q08722 19-134): as the sequence (Q08722 19-134 limits assumed) above
Chain of SIRP-Fc ligand (BIOCAD) (P78324 31-370 limits assumed): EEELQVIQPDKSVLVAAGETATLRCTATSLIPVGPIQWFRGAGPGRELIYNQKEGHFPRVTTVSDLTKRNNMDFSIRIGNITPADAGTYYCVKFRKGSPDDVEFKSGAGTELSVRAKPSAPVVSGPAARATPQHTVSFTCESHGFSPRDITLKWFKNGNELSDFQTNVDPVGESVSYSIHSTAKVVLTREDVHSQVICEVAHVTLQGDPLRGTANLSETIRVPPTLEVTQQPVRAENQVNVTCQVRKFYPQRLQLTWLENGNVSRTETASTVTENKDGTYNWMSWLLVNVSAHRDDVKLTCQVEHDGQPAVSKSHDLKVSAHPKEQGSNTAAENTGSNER

OD units, competitive screening to SIRP-Fc [1] [OD units]	OD units, initial screening for CD47-Fc [2] [OD units]	koff [3] [s⁻¹]	OD units, competitive screening to SIRP-Fc [4] [OD units]	OD units, binding on CD47 proprietary [5] [OD units]	Molecule
0.481	–	–	–	–	SIRP-Fc ligand (BIOCAD) (from UniProt P78324 31-370) (Fc fusion)
–	0.4	0.006	0.095	0.448	BCD106-02_L.Alecto.VHHSel2_MP1_H10_78 (VHH, Llama anti-CD47 VHH tested as E. coli culture supernatant; not shown: myc and His6 tags at the C-terminus of the VHH (pET-22)) VHH: QVKLEESGGGLVQPGGSLRLSCAASRSISSINAMNWYRQAPGKRREWVAQITGEGITNYRDSVKGRFTITSDNAKNTMYLQMNSLKPEDTAVYYCNAFVIHTTSEVYWGQGTLVTVSS
–	0.319	0.008	0.088	0.498	BCD106-02_L.Alecto.VHHSel2_MP1_G7_53 (VHH, Llama anti-CD47 VHH tested as E. coli culture supernatant; not shown: myc and His6 tags at the C-terminus of the VHH (pET-22)) VHH: QVKLEESGGGLVQPGGSLTLSCAASGIISSINAMNWYRQAPGKRREWVAQITGEGITNCRDSWKGRFSITSDSANNTMYLQMNNLKPDDTDVYYCNAFVIHTTSEIYWGLGTTVTVSS

More lines, now with the values behind:

Molecule	OD units, competitive screening to SIRP-Fc [1] [OD units]	OD units, initial screening for CD47-Fc [2] [OD units]	koff [3] [s⁻¹]	OD units, competitive screening to SIRP-Fc [4] [OD units]	OD units, binding on CD47 proprietary [5] [OD units]
BCD106-02_L.Alecto.VHHSel2_MP1_G5_37 (VHH, Llama anti-CD47 VHH tested as E. coli culture supernatant; not shown: myc and His6 tags at the C-terminus of the VHH (pET-22)) VHH: AVQLVDSGGGLVQPGGSLRLSCAASRSIFSINAMNWYRQAPGNRREWVAQITDEGITNYVDSVKGRFTITRDNAKNTMYLQMNSLKPEDTAVYYCNAFVITTTSEIYWGQGTTVTVSS	–	0.166	0.006	0.143	0.426
BCD106-02_L.Alecto.VHHSel2_MP1_C7_49 (VHH, Llama anti-CD47 VHH tested as E. coli culture supernatant; not shown: myc and His6 tags at the C-terminus of the VHH (pET-22)) VHH: AVQLVDSGGGLVQPGGSLRLSCAASRSIFSINAMNWYRQPPGNRREWVAQITDEGITNYVDSVKGRFTITRDNAKNTMYLQMNSLKPEDTAVYYCNAFVITTTSEIYWGQGTTVTVSS	–	0.127	0.005	0.14	0.379
BCD106-02_L.Alecto.VHHSel2_MP1_F10_76 (VHH, Llama anti-CD47 VHH tested as E. coli culture supernatant; not shown: myc and His6 tags at the C-terminus of the VHH (pET-22)) VHH: DVQLVESGGGLVQPGGSLRLSCAASRNIFSINAMNWYRQAPGKRREWVAQITSEGITNYVDSVKGRFTITRDNAKNTMYLQMNSLKPEDTAVYYCNAFVITASSEVYWGQGTTVTVSS	–	0.213	0.01	0.114	0.312
BCD106-02_L.Alecto.VHHSel2_MP1_B9_64 (VHH, Llama anti-CD47 VHH tested as E. coli culture supernatant; not shown: myc and His6 tags at the C-terminus of the VHH (pET-22)) VHH: DVQLVESGGGLVQPGGSLTLSCAASRNIFRINAMNWYRQAPGKRREWVAPITSEGITNYVDSVKGRFTITRDNAKNTMYLQMNSLKPEDTAVYYCNACLITASSEVYWGQGTLVTVSS	–	0.129	0.008	0.188	0.24
